Measured values: patent publication US20140057332A1, “GLUCO-OLIGOSACCHARIDE OXIDASES FROM ACREMONIUM STRICTUM AND USES THEREOF” (The Governing Council of the University of Toronto, priority 2011, published 2014)
Positions count from the first letter of the chain named. Names and notes keep the numbering of the source.

Tests used:
[1] = Effect of deglycosylation with PNGaseF on enzyme activity; assay type: biochemical; conditions: 10 mM maltose, 15 min at 37° C., duplicate; for Activity, Deglycosylated: deglycosylated with PNGaseF (native conditions); for Activity, Glycosylated: glycosylated enzyme
Experimental: Approximately 2 μg of purified enzyme was treated with PNGaseF (New England Biolabs) using denaturing and native conditions. Samples that were deglycosylated using denaturing conditions were analysed by SDS PAGE, while samples deglycosylated using native conditions were used to evaluate the impact of glycosylation on enzyme activity. The activity of enzymes was measured on 10 mM maltose at 37° C. for 15 min. (Table 7). N-glycosylation was predicted by NetNGlyc (http://www.cbs.dtu.dk/services/NetNGlyc/) while O-glycosylation was predicted by OGPET (http://ogpet.utep.edu/OGPET/).

[2] = Kinetic analyses, all tested substrates; assay type: biochemical; conditions: all tested monosaccharides and oligosaccharides
Experimental: (§1) A chromogenic assay was used to measure hydrogen peroxide production (15). Reactions contained 0.1 mM 4aminoantipyrine (4AA), 1 mM phenol, 0.5 U horseradish peroxidase, 40 mM Tris-HCl (pH 8.0), and different substrates were initiated by adding 0.2 μg of enzymes to the 250 μL reaction mixture. The production of H2O2 was coupled to the oxidation of 4aminoantipyrine by horseradish peroxidase and detected at 500 nm. Reactions were incubated at 37° C. for 15 min to measure the specific activity of GOOX on 10 mM of monosaccharide or 1 mM of oligosaccharide.
(§2) At least 12 substrate concentrations were included to obtain kinetic parameters for each substrate. Initial rates were obtained by measuring reaction products every 30 s for 15 min at 37° C. and pH 8.0, and kinetic parameters were calculated using the Michaelis-Menten equation (GraphPad Prism5 Software).

[3] = Chromogenic H2O2 oxidase assay on mannose
Experimental: as §1
(§3) An additional eight mutations, identified as Y72F, Y72A, E247A, E314A, W351A, N388S, Q353N, Q384A, were created in GOOX-VN to assess the influence of these residues on the substrate selectivity of GOOX-VN. […] The specific activity of each mutant was then measured at 37° C. for 15 min using 10 mM mono-sugars and 1 mM oligosaccharides as performed for Y300A, Y300N, and W351F (Table 11).

[4] = substrate: CC(=O)N[C@H]1C(O)O[C@H](CO)[C@@H](O)[C@@H]1O; test: purified protein, by the assay type; conditions: other: 37° C., pH 8.0
Experimental: as §1, §2

[5] = substrate: OC1OC[C@@H](O)[C@H](O)[C@H]1O; test: purified protein, by the assay type; conditions: other: 37° C., pH 8.0
Experimental: as §1, §2

[6] = substrate: OC1OC[C@@H](O[C@@H]2OC[C@@H](O)[C@H](O)[C@H]2O)[C@H](O)[C@H]1O; test: purified protein, by the assay type; conditions: other: 37° C., pH 8.0
Experimental: as §1, §2

[7] = substrate: OC1OC[C@@H](O[C@@H]2OC[C@@H](O[C@@H]3OC[C@@H](O)[C@H](O)[C@H]3O)[C@H](O)[C@H]2O)[C@H](O)[C@H]1O; test: purified protein, by the assay type; conditions: other: 37° C., pH 8.0
Experimental: as §1, §2

[8] = substrate: OC[C@H]1OC(O)[C@H](O)[C@@H](O)[C@@H]1O; test: purified protein, by the assay type; conditions: other: 37° C., pH 8.0
Experimental: as §1, §2

[9] = substrate: OC[C@H]1O[C@@H](O[C@H]2[C@H](O)[C@@H](O)C(O)O[C@@H]2CO)[C@H](O)[C@@H](O)[C@@H]1O; test: purified protein, by the assay type; conditions: other: 37° C., pH 8.0
Experimental: as §1, §2

[10] = substrate: OC[C@H]1O[C@@H](O[C@H]2[C@H](O)[C@@H](O)[C@H](O[C@H]3[C@H](O)[C@@H](O)C(O)O[C@@H]3CO)O[C@@H]2CO)[C@H](O)[C@@H](O)[C@@H]1O; test: purified protein, by the assay type; conditions: other: 37° C., pH 8.0
Experimental: as §1, §2

[11] = substrate: OC[C@H]1O[C@H](O[C@H]2[C@H](O)[C@@H](O)C(O)O[C@@H]2CO)[C@H](O)[C@@H](O)[C@@H]1O; test: purified protein, by the assay type; conditions: other: 37° C., pH 8.0
Experimental: as §1, §2

[12] = Chromogenic H2O2 oxidase assay / kinetic analysis on NAG; conditions: for Specific activity Defined substrate concentration: 10 mM NAG, 37° C., 15 min; for Specific activity From Vmax: substrate NAG
Experimental: as §1, §2

[13] = Chromogenic H2O2 oxidase assay / kinetic analysis on xylose; conditions: for Specific activity Defined substrate concentration: 10 mM xylose, 37° C., 15 min; for Specific activity From Vmax: substrate xylose
Experimental: as §1, §2

[14] = Chromogenic H2O2 oxidase assay / kinetic analysis on glucose; conditions: for Specific activity From Vmax: substrate glucose
Experimental: as §1, §2

[15] = Chromogenic H2O2 oxidase assay / kinetic analysis on maltose; conditions: for Specific activity Defined substrate concentration: 1 mM maltose, 37° C., 15 min; for Specific activity From Vmax: substrate maltose
Experimental: as §1, §2

[16] = Chromogenic H2O2 oxidase assay / kinetic analysis on galactose; conditions: for Specific activity From Vmax: substrate galactose
Experimental: as §1, §2

[17] = Chromogenic H2O2 oxidase assay / kinetic analysis on xylobiose; conditions: for Specific activity Defined substrate concentration / Specific Activity of Enzyme Variants: 1 mM xylobiose, 37° C., 15 min; for Specific activity From Vmax: substrate xylobiose
[18] = Chromogenic H2O2 oxidase assay / kinetic analysis on cellobiose; conditions: for Specific activity Defined substrate concentration / Specific Activity of Enzyme Variants: 1 mM cellobiose, 37° C., 15 min; for Specific activity From Vmax: substrate cellobiose
Experimental: as §1, §2

[19] = Chromogenic H2O2 oxidase assay / kinetic analysis on xylotriose; conditions: for Specific activity Defined substrate concentration / Specific Activity of Enzyme Variants: 1 mM xylotriose, 37° C., 15 min; for Specific activity From Vmax: substrate xylotriose
Experimental: as §1, §2

[20] = Chromogenic H2O2 oxidase assay / kinetic analysis on cellotriose; conditions: for Specific activity Defined substrate concentration / Specific Activity of Enzyme Variants: 1 mM cellotriose, 37° C., 15 min; for Specific activity From Vmax: substrate cellotriose
Experimental: as §1, §2

[21] = Chromogenic H2O2 oxidase assay on xylohexaose; conditions: 1 mM xylohexaose; 37° C., 15 min
Experimental: as §1, §3

[22] = Chromogenic H2O2 oxidase assay on xylotetraose; conditions: 1 mM xylotetraose; 37° C., 15 min
Experimental: as §1, §3

[23] = Chromogenic H2O2 oxidase assay on xylopentaose; conditions: 1 mM xylopentaose; 37° C., 15 min
Experimental: as §1, §3

[24] = substrate: OC[C@H]1OC(O)[C@H](O)[C@@H](O)[C@H]1O; test: purified protein, by the assay type; conditions: other: 37° C., pH 8.0
Experimental: as §1, §2

[25] = 10 mM galactose, 37° C., 15 min

B1: Acremonium strictum gluco-oligosaccharide oxidase GOOX-VN variant 2 Y300N, SEQ ID NO. 7 (Sarocladium strictum; A38V/S388N/Y300N) (protein)
chain: NSINACLAAADVEFHEEDSEGWEMDGTAFNLRVDYDPVAIAIPRSTEDIAAAVQCGLDAGVQISAKGGGHSYGSYGFGGEDGHLMLELDRMYRVSVDDDNVATIQGGARLGYTALELLDQGNRALTHGTCPAVGIGGHVLGGGYGFATHTHGLTLDWLVGATVVLADASIVHVSKTENADLFWALRGGGGGFAIVSEFEFNTFEAPEIITTYQVTTTWNRKQHVAGLKALQDWAENTMPRELSMRLEINANALNWEGNYFGNAKDLKKVLQPIMKKAGGKSTISKLVETDWYGQINTYLNGADLNITYNYDVHEYFYANSLTAPRLSDEAISAFVDYKFDNSSVRPGRGWWIQWDFHGGKNSALASHSNDETAYAHRDQLWLWQFYDNIYDYENNTSPYPESGFEFMQGFVATIEDTLPEDRKGKYFNYADTTLDKEEAQKLYWRGNLEKLQAIKAKYDPEDVFGNVVSVEPIA
[1]
  Activity, Deglycosylated: 2.78 nmol/min
  Activity, Glycosylated: 2.6 nmol/min
[2]
  catalytic activity (kcat) relative to GOOX-VN: approximately two times higher
[3]
  activity on mannose (in words): low activity
[3]; 10 mM mannose, 37° C., 15 min
  Specific activity Defined substrate concentration: 0.19 µmol/mg/min
[4]
  Km: 55.95 ± 1.93 mM
[5]
  Km: 32.01 ± 1.67 mM
[6]
  Km: 4.83 ± 0.17 mM
[7]
  Km: 4.32 ± 0.25 mM
[8]
  Km: 3.11 ± 0.12 mM
[9]
  Km: 0.38 ± 0.02 mM
[10]
  Km: 0.44 ± 0.01 mM
[11]
  Km: 19.61 ± 0.66 mM
  kcat: 10.4 ± 0.105 s⁻¹
  kcat/Km: 530 ± 18.3 M⁻¹ s⁻¹
[12]
  Specific activity Defined substrate concentration: 1.5 µmol/mg/min
  Specific activity From Vmax: 11.22 µmol/mg/min
[13]
  Specific activity Defined substrate concentration: 2.32 µmol/mg/min
  Specific activity From Vmax: 11.48 µmol/mg/min
[14]; 10 mM glucose, 37° C., 15 min
  Specific activity Defined substrate concentration: 8.32 µmol/mg/min
[14]
  Specific activity From Vmax: 10.70 µmol/mg/min
[15]
  Specific activity Defined substrate concentration: 0.49 µmol/mg/min
  Specific activity From Vmax: 10.30 µmol/mg/min
[16]; [25]
  Specific activity Defined substrate concentration: 0.95 µmol/mg/min
[16]
  Specific activity From Vmax: 11.64 µmol/mg/min
[17]
  Specific activity Defined substrate concentration: 1.83 µmol/mg/min
  Specific activity From Vmax: 11.84 µmol/mg/min
[18]
  Specific activity Defined substrate concentration: 8.15 µmol/mg/min
  Specific activity From Vmax: 11.29 µmol/mg/min
[19]
  Specific activity Defined substrate concentration: 2.00 µmol/mg/min
  Specific activity From Vmax: 11.85 µmol/mg/min
[20]
  Specific activity Defined substrate concentration: 6.90 µmol/mg/min
  Specific activity From Vmax: 9.88 µmol/mg/min

B2: E247A: GOOX-VN mutant with E247A substitution (protein)
chain: B1 chain with E247A, N300Y
[21]
  Specific Activity of Enzyme Variants: 5.1 µmol/min/mg
[22]
  Specific Activity of Enzyme Variants: 5.3 µmol/min/mg
[23]
  Specific Activity of Enzyme Variants: 5.2 µmol/min/mg
[14]; 10 mM glucose, 37° C., 15 min
  Specific Activity of Enzyme Variants: 0.4 µmol/min/mg
[17]
  Specific Activity of Enzyme Variants: 4.2 µmol/min/mg
[18]
  Specific Activity of Enzyme Variants: 2.2 µmol/min/mg
[19]
  Specific Activity of Enzyme Variants: 3.5 µmol/min/mg
[20]
  Specific Activity of Enzyme Variants: 2.7 µmol/min/mg

B3: Acremonium strictum gluco-oligosaccharide oxidase GOOX-VN variant 3 W351F, SEQ ID NO. 8 (Sarocladium strictum; A38V/S388N/W351F) (protein)
chain: B1 chain with N300Y, W351F
[1]
  Activity, Deglycosylated: 3.19 nmol/min
  Activity, Glycosylated: 3.13 nmol/min
[6]
  Km: 0.35 ± 0.01 mM
  kcat: 7.96 ± 0.0583 s⁻¹
  kcat/Km: 23000 ± 683 M⁻¹ s⁻¹
[7]
  Km: 0.31 ± 0.01 mM
  kcat: 7.885 ± 0.0717 s⁻¹
  kcat/Km: 25700 ± 867 M⁻¹ s⁻¹
[8]
  Km: 31.05 ± 1.33 mM
[24]
  Km: 36.12 ± 1.30 mM
[9]
  Km: 0.08 ± 0.00 mM
  kcat: 5.74 ± 0.0833 s⁻¹
  kcat/Km: 69000 ± 1000 M⁻¹ s⁻¹
[10]
  Km: 0.11 ± 0.01 mM
  kcat: 5.25 ± 0.107 s⁻¹
  kcat/Km: 47300 ± 4420 M⁻¹ s⁻¹
[11]
  Km: 4.96 ± 0.23 mM
  kcat: 5.38 ± 0.0733 s⁻¹
  kcat/Km: 1080 ± 51.7 M⁻¹ s⁻¹
[12]
  Specific activity Defined substrate concentration: 0.1 µmol/mg/min
  Specific activity From Vmax: 7.71 µmol/mg/min
[13]
  Specific activity Defined substrate concentration: 0.15 µmol/mg/min
  Specific activity From Vmax: 4.57 µmol/mg/min
[14]; 10 mM glucose, 37° C., 15 min
  Specific activity Defined substrate concentration: 1.31 µmol/mg/min
[14]
  Specific activity From Vmax: 5.57 µmol/mg/min
[15]
  Specific activity Defined substrate concentration: 0.84 µmol/mg/min
  Specific activity From Vmax: 5.33 µmol/mg/min
[16]; [25]
  Specific activity Defined substrate concentration: 1.30 µmol/mg/min
[16]
  Specific activity From Vmax: 6.49 µmol/mg/min
[17]
  Specific activity Defined substrate concentration: 5.93 µmol/mg/min
  Specific activity From Vmax: 7.88 µmol/mg/min
[18]
  Specific activity Defined substrate concentration: 5.10 µmol/mg/min
  Specific activity From Vmax: 5.68 µmol/mg/min
[19]
  Specific activity Defined substrate concentration: 5.95 µmol/mg/min
  Specific activity From Vmax: 7.81 µmol/mg/min
[20]
  Specific activity Defined substrate concentration: 4.62 µmol/mg/min
  Specific activity From Vmax: 5.20 µmol/mg/min

B4: W351A: GOOX-VN mutant with W351A substitution (protein)
chain: B1 chain with N300Y, W351A
[21]
  Specific Activity of Enzyme Variants: 0.5 µmol/min/mg
[22]
  Specific Activity of Enzyme Variants: 0.3 µmol/min/mg
[23]
  Specific Activity of Enzyme Variants: 0.3 µmol/min/mg
[16]; [25]
  Specific Activity of Enzyme Variants: 0.3 µmol/min/mg
[17]
  Specific Activity of Enzyme Variants: 0.1 µmol/min/mg
[18]
  Specific Activity of Enzyme Variants: 0.6 µmol/min/mg
[19]
  Specific Activity of Enzyme Variants: 0.1 µmol/min/mg
[20]
  Specific Activity of Enzyme Variants: 1.1 µmol/min/mg
